The results in this text go back to PMC3141246 (Nucleic Acids Research, 2011).

The series concerns the molecule itself. Put plainly: native gel or EMSA. (In general: A gel shift assay detects complexes by their altered migration in electrophoresis.)

B1: Rpp20, protein subunit of human nuclear RNase P (natural protein, UniProt O75817 1-140, looked up)
chain: MAENREPRGAVEAELDPVEYTLRKRLPSRLPRRPNDIYVNMKTDFKAQLARCQKLLDGGARGQNACSEIYIHGLGLAINRAINIALQLQAGSFGSLQVAANTSTVELVDELEPETDTREPLTRIRNNSAIHIRVFRVTPK
For the protein B1, the binding result is reported as “binds”.
